{"source": "patent US20230310596A1", "about": "“DRUG FOR TREATING TUMOR” (priority 2020, published 2023)", "molecules": {"B1": {"name": "Cohort II: anti-PD-L1 humanized monoclonal antibody hu5G11-hIgG1, prepared as described in WO2016022630, given as injection (antibody, V domains shown)", "VH": "QITLKESGPTLVKPTQTLTLTCTVSGFSLSTYGVHWIRQPPGKALEWLGVIWRGVTTDYNAAFMSRLTITKDNSKNQVVLTMNNMDPVDTATYYCARLGFYAMDYWGQGTLVTVSS", "VL": "DIQMTQSPSSLSASVGDRVTITCKASQSVSNDVAWYQQKPGKAPKLLIYYAANRYTGVPDRFSGSGYGTDFTFTISSLQPEDIATYFCQQDYTSPYTFGQGTKLEIK", "modifications": "hIgG1 constant regions; VH of hu5G11-hIgG1 and hu5G11-hIgG4; VL of hu5G11-hIgG1 and hu5G11-hIgG4"}}, "test_system": "MSI-H or dMMR endometrial cancer", "format": "in vivo, human", "procedure": "Endometrial cancer subjects meeting inclusion criteria were first tested for MMR/MSI status by immunohistochemical or PCR methods, and then grouped according to the MSI-H/dMMR test results; for non-MSI-H/non-dMMR subjects, an anti-PD-L1 antibody and anlotinib hydrochloride (cohort I) were administered, while for MSI-H or dMMR subjects, an anti-PD-L1 antibody (cohort II) was administered, and for patients with disease under control (CR + PR + SD) and tolerable adverse reactions, the administration could be continued until clinical benefits were lost, until the toxicity was intolerable, until PD/iCPD was given by efficacy evaluation, or until the investigator deemed further medication inappropriate. Efficacy evaluations were performed every 6 weeks (42 days) ± 3 days, starting on day 1 of treatment cycle 1, and the efficacy evaluations were performed once every 12 weeks (84 days) ± 3 days after 54 weeks, until the subjects developed disease progression confirmed by oncologic imaging. 1) Histologically or cytologically confirmed unresectable recurrent or metastatic advanced endometrial cancer (previously received 1-2 lines of systemic standard chemotherapy and failed or was intolerant; preliminary neoadjuvant or adjuvant chemotherapy was allowed). 2) It was confirmed that there was at least one measurable lesion according to the Response Evaluation Criteria in Solid Tumors (RECIST 1.1). 3) Age: ≥18 years; ECOG PS scoring: 0-1; an expected survival time of more than 3 months. Anti-PD-L1 antibody injection hu5G11-hIgG1: 1200 mg of the anti-PD-L1 antibody injection (strength: 600 mg/20 mL) was diluted to 250 mL with normal saline, and the infusion time was 60 ± 10 min (from the beginning of the infusion of the anti-PD-L1 antibody injection until the end of the infusion of the anti-PD-L1 antibody injection and the completion of flushing the tube with normal saline (20 mL recommended)). The anti-PD-L1 antibody injection was administered on the first day, and once every 21 days, that is, 21 days were counted as a treatment cycle (d1/q3w). Safety evaluation criteria: the severity of adverse events was determined using the NCI-CTC AE 5.0 criteria. Effectiveness evaluation criteria: disease status was determined using RECIST 1.1, iRECIST criteria. RECIST 1.1 criteria were used as the primary criteria, and iRECIST criteria were used to confirm efficacy. That is, subjects determined to be disease progression (PD) according to RECIST 1.1 criteria were further confirmed according to iRECIST criteria to determine whether to take further medication observation. Primary endpoint: objective response rate (ORR) for IRC evaluation Secondary endpoint: (1) objective response rate (ORR), disease control rate (DCR), duration of response (DOR), progression-free survival (PFS), overall survival (OS), DOR rate (≥ 6 months), and the like evaluated by investigators; (2) the incidence and severity of adverse events (AEs) and serious adverse events (SAEs), and abnormal laboratory test indicators.", "key": {"[1]": {"settings": "cohort II, after at least 2 cycles of treatment"}, "[2]": {"settings": "cohort II, after at least 2 cycles of treatment, listed as anti-PD-L1 antibody"}}, "note": "Read-outs that look alike come from different tables or passages of the source.", "data": [{"molecule": "B1", "values": [{"measurement": "best response CR, number of subjects", "setting": "cohort II, MSI-H or dMMR subjects, after at least 2 cycles of treatment, RECIST 1.1/iRECIST, antibody 1200 mg d1/q3w", "result": "0/6"}, {"measurement": "DCR, number of subjects", "setting": "[1]", "result": "3/6"}, {"measurement": "ORR, number of subjects", "setting": "[1]", "result": "⅙"}, {"measurement": "best response CR, ratio", "setting": "[1]", "result": "(0.00%)"}, {"measurement": "best response PD, ratio", "setting": "[1]", "result": "(50.00%)"}, {"measurement": "best response PR (partial response), number of subjects", "setting": "[1]", "result": "⅙"}, {"measurement": "best response PR, ratio", "setting": "[1]", "result": "(16.67%)"}, {"measurement": "best response SD (stable disease), number of subjects", "setting": "[1]", "result": "2/6"}, {"measurement": "best response SD, ratio", "setting": "[1]", "result": "(33.33%)"}, {"measurement": "disease control rate (DCR)", "setting": "[1]", "result": "(50.00%)"}, {"measurement": "objective response rate (ORR)", "setting": "[1]", "result": "(16.67%)"}, {"measurement": "disease control rate (DCR)", "setting": "[2]", "result": 50.00, "unit": "%"}, {"measurement": "objective response rate (ORR)", "setting": "[2]", "result": 16.67, "unit": "%"}, {"measurement": "adverse reaction incidence", "setting": "human, in vivo", "result": 67, "unit": "%"}, {"measurement": "incidence of adverse reactions above grade 3", "setting": "human, in vivo", "result": 16, "unit": "%"}]}]}
